Reference: patent US20260008815A1, “CYCLIC PEPTIDE OR SALT THEREOF, AND USES THEREOF” (FUJIFILM Corporation, priority 2023, published 2026)
Bridge positions count the residues as written; N and C are the ends. Ends that are not written are not given here. COCH2 = acetyl group that carries the bridge

What was measured:
[1] = biological target: T1, Recombinant Human FGFR2 alpha (IIIc) Fc Chimera Protein (Homo sapiens, UniProt P21802); assay: SPR binding affinity of chemically synthesized cyclic peptide to immobilized FGFR; conditions: SPR binding amount at 10 nmol/L cyclic peptide, 25° C., per one molecule of FGFR; chemically synthesized product
T1 construct: Fc (chimera); purchased R&D systems 712-FR-050
T1 sequence (P21802 with tags, fused parts or gaps limits assumed): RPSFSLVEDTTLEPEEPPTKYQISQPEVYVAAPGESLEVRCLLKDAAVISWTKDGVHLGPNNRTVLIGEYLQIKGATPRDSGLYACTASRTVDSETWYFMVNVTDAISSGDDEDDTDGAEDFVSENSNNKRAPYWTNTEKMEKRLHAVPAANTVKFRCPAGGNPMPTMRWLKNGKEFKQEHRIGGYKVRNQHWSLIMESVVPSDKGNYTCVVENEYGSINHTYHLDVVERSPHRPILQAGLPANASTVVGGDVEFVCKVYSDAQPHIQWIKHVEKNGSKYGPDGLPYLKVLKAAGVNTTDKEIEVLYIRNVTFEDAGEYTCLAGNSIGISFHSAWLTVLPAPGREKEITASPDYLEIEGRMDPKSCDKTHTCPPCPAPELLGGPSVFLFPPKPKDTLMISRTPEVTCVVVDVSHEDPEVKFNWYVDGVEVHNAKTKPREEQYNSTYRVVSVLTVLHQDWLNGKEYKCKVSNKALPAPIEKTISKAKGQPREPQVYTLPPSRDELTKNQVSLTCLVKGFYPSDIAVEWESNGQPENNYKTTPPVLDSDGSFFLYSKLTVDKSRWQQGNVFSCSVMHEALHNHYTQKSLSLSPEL
Method: The binding affinity of the cyclic peptide to FGFR was evaluated using a surface plasmon resonance (SPR) method.
(§1) A CM5 sensor chip (Cytiva, 29149603) was set in Biacore-T200 (manufactured by Cytiva) which is a surface plasmon resonance device, and an HBS-EP buffer (Cytiva, BR100826) was added as a running buffer at a flow rate of 10 μL/min to equilibrate the flow channel. Next, 70 μL of a mixed aqueous solution of 0.2 mol/L 1-(3-dimethylaminopropyl)-3-ethylcarbodiimide (EDC) and 0.05 mol/L N-hydroxysuccinimide (NHS) was added to activate the sensor chip. Then, Recombinant Human FGFR2 alpha (IIIc) Fc Chimera Protein CF (R&D systems, 712-FR-050) prepared at 50 nmol/L in an Acetate 4.5 buffer (Cytiva, BR100350) was added thereto to perform immobilization at about 5000 RU. Thereafter, the blocking treatment was performed with an ethanolamine solution. In addition, in another flow channel of the same sensor chip, blocking treatment was performed immediately after activation without immobilizing FGFR.
A cyclic peptide diluted to 10 nmol/L using HBS-EP was added to each flow channel of the FGFR-immobilized sensor chip produced above at 25° C. for 10 minutes, then HBS-EP was allowed to flow as a running buffer for 30 minutes, and the binding of the cyclic peptide to FGFR was measured. Thereafter, a regeneration treatment of removing the bound cyclic peptide was performed by repeating the flow of a regeneration liquid in which sodium chloride powder was dissolved in Glysine 1.5 (Cytiva, BR100354) to a final concentration of 0.15 mol/L for 1 minute in each flow channel twice. The binding amount of the cyclic peptide was evaluated from the difference between the measured value of Biacore-T200 in the flow channel in which FGFR was immobilized and the measured value of Biacore-T200 in the flow channel in which FGFR was not immobilated, in a case where a 10 nmol/L cyclic peptide was allowed to flow.
The binding amount of the cyclic peptide evaluated above was normalized to the binding amount of the cyclic peptide molecules per one molecule of FGFR using the molecular weights of the cyclic peptide and FGFR, and the binding affinity to FGFR was evaluated according to the following evaluation criteria. The evaluation result preferably satisfies the evaluation criteria A, B, or C.

[2] = biological target: T2, FGFR2 Protein, Human, Recombinant (His Tag) (Homo sapiens, UniProt P21802); assay: SPR FGFR versatility, peptide immobilized; conditions: SPR binding amount at 1 μmol/L FGFR, 25° C., per one molecule of immobilized cyclic peptide
T2 construct: His; purchased Sino Biological 10824-H08H
T2 sequence (P21802 22-821): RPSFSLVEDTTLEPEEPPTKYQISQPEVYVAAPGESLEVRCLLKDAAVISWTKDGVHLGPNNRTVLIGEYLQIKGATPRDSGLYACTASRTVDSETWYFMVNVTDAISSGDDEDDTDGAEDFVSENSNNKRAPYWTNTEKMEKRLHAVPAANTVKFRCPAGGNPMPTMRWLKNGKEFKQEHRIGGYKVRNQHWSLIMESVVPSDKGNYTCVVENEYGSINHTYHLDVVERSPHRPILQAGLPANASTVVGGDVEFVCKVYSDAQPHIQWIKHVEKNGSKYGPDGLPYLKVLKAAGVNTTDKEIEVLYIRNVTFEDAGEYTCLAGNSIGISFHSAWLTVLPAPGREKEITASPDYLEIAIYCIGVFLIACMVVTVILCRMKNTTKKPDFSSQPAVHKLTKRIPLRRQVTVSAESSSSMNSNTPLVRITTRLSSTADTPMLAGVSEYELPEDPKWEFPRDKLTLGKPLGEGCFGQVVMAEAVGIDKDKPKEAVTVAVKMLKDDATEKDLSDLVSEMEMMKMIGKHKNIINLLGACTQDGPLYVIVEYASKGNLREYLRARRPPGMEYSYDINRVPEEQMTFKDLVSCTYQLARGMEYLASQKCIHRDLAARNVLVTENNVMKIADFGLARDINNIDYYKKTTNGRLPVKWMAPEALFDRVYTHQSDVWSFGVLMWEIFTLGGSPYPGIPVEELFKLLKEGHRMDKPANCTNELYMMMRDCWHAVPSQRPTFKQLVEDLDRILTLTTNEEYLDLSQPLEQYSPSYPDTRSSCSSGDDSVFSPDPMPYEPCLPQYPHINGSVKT
Method: (§2) The binding of the cyclic peptide to various types of FGFRs was evaluated using a surface plasmon resonance (SPR) method.
as §1, with “a cyclic peptide” for “Recombinant Human FGFR2 alpha (IIIc) Fc Chimera Protein CF (R&D systems, 712-FR-050)”, “to 2 mg/mL” for “at 50 nmol/L”, “HBS-EP” for “an Acetate 4.5”, “buffer” for “buffer (Cytiva, BR100350)”, “200” for “5000”
(§3) After various FGFRs (FGFR1 Protein, Human, Recombinant (His Tag) (Sino Biological, 10616-H08H), FGFR2 Protein, Human, Recombinant (His Tag) (Sino Biological, 10824-H08H), FGFR3 Protein, Human, Recombinant (ECD, His Tag) (Sino Biological, 16044-H08H), FGFR4 Protein, Human, Recombinant (His Tag) (Sino Biological, 10538-H08H)) diluted with HBS-EP to 1 μmol/L at 25° C. was added to each flow channel of the cyclic peptide-immobilized sensor chip prepared above, for 10 minutes, HBS-EP was allowed to flow as a running buffer for 30 minutes, and the binding of various FGFRs to the cyclic peptide was measured. Thereafter, a regeneration treatment of removing the bound FGFR was performed by repeating the flow of a regeneration liquid in which sodium chloride (final concentration: 0.4 mol/L) and a sodium dodecyl sulfate aqueous solution (mixed concentration: 1%, final concentration: 0.2%) were dissolved in Glysine 1.5 (Cytiva, BR100354) for 1 minute in each flow channel twice. The binding amount of the cyclic peptide was evaluated from the difference between the measured value of Biacore-T200 in the flow channel in which the cyclic peptide was immobilized and the measured value of Biacore-T200 in the flow channel in which the cyclic peptide was not immobilized, in a case where 1 μmol/L FGFR was allowed to flow.
(§4) The binding amount of FGFR evaluated above was normalized to the binding amount of FGFR molecules per one molecule of the cyclic peptide using the molecular weights of the cyclic peptide and FGFR, and the binding affinity to FGFR was evaluated according to the following evaluation criteria. The evaluation result preferably satisfies the evaluation criteria A, B, or C.

[3] = biological target: T3, FGFR1 Protein, Human, Recombinant (His Tag) (Homo sapiens, UniProt P11362); assay: SPR FGFR versatility, peptide immobilized; conditions: SPR binding amount at 1 μmol/L FGFR, 25° C., per one molecule of immobilized cyclic peptide
T3 construct: His; purchased Sino Biological 10616-H08H
T3 sequence (P11362 22-822): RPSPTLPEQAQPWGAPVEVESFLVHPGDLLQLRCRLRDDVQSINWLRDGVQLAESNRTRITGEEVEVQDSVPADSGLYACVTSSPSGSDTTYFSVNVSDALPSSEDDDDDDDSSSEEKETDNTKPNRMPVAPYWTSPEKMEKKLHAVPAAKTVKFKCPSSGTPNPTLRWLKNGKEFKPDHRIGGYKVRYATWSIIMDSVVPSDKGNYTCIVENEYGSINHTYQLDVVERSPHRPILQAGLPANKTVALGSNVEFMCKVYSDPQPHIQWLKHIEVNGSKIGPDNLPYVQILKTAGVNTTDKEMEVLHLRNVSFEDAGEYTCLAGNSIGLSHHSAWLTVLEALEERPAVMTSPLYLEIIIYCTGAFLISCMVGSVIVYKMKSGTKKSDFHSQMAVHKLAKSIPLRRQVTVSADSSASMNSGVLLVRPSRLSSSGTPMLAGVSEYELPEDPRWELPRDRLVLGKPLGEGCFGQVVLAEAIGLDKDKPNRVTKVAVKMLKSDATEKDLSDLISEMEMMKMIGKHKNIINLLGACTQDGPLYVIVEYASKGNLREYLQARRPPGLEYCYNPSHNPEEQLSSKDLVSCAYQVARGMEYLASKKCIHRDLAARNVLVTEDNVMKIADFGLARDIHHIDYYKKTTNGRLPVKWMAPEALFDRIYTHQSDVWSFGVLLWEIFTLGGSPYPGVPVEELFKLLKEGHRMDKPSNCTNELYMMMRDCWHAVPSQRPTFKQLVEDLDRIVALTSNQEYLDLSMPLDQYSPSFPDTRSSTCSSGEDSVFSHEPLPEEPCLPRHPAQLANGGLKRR
Method: as §2
as §1, with “a cyclic peptide” for “Recombinant Human FGFR2 alpha (IIIc) Fc Chimera Protein CF (R&D systems, 712-FR-050)”, “to 2 mg/mL” for “at 50 nmol/L”, “HBS-EP” for “an Acetate 4.5”, “buffer” for “buffer (Cytiva, BR100350)”, “200” for “5000”
as §3, §4

[4] = biological target: T4, FGFR3 Protein, Human, Recombinant (ECD, His Tag) (Homo sapiens, UniProt P22607); assay: SPR FGFR versatility, peptide immobilized; conditions: SPR binding amount at 1 μmol/L FGFR, 25° C., per one molecule of immobilized cyclic peptide
T4 construct: FGFR3 Protein, Human, Recombinant (ECD, His Tag) (Sino Biological, 16044-H08H); His; purchased Sino Biological 16044-H08H
T4 sequence (P22607 23-375 limits assumed): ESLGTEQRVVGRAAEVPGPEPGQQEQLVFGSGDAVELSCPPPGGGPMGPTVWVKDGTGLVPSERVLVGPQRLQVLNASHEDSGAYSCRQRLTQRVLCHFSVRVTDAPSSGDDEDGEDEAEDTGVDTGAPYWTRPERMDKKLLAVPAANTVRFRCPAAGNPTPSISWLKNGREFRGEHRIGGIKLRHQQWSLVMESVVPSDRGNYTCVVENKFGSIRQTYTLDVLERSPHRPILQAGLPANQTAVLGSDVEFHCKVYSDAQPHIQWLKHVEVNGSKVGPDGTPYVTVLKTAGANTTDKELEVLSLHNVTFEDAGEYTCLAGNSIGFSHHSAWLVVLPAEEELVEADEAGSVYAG
Method: as §2
as §1, with “a cyclic peptide” for “Recombinant Human FGFR2 alpha (IIIc) Fc Chimera Protein CF (R&D systems, 712-FR-050)”, “to 2 mg/mL” for “at 50 nmol/L”, “HBS-EP” for “an Acetate 4.5”, “buffer” for “buffer (Cytiva, BR100350)”, “200” for “5000”
as §3, §4

[5] = biological target: T5, FGFR4 Protein, Human, Recombinant (His Tag) (Homo sapiens, UniProt P22455); assay: SPR FGFR versatility, peptide immobilized; conditions: SPR binding amount at 1 μmol/L FGFR, 25° C., per one molecule of immobilized cyclic peptide
T5 construct: His; purchased Sino Biological 10538-H08H
T5 sequence (P22455 22-802): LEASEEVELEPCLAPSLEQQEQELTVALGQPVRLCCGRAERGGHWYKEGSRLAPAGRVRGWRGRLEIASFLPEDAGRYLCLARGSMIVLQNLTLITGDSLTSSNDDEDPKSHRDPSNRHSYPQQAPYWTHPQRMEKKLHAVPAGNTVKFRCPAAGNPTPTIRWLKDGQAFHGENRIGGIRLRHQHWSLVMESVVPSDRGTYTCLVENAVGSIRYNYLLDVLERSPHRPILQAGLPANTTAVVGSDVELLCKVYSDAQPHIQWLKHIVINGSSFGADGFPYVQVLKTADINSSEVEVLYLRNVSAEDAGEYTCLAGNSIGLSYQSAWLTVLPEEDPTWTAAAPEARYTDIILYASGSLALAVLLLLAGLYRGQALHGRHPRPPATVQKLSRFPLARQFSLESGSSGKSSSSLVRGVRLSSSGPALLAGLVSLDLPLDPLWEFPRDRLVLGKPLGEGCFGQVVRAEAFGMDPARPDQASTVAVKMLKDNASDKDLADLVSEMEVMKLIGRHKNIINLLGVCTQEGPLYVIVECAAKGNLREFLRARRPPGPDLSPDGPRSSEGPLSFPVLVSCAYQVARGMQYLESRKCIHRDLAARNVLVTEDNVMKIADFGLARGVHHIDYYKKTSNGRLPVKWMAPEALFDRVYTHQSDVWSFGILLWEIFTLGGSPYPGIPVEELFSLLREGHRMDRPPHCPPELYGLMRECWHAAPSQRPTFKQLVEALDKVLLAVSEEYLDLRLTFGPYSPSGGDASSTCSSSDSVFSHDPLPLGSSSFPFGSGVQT
Method: as §2
as §1, with “a cyclic peptide” for “Recombinant Human FGFR2 alpha (IIIc) Fc Chimera Protein CF (R&D systems, 712-FR-050)”, “to 2 mg/mL” for “at 50 nmol/L”, “HBS-EP” for “an Acetate 4.5”, “buffer” for “buffer (Cytiva, BR100350)”, “200” for “5000”
as §3, §4

[6] = Molecular stability after reducing agent (DTT) treatment, LC; assay type: physicochemical; conditions: residual rate after DTT aqueous solution, room temperature, 1 hour
Method: The molecular stability of the cyclic peptide was evaluated by analyzing an aqueous solution of the cyclic peptide treated with a reducing agent by liquid chromatography (LC).
The reducing agent treatment was performed under the following conditions based on the concentration of glutathione contained in the cells. 25 μL of a 0.2 mg/mL cyclic peptide aqueous solution was prepared, 58.8 μL of a 12.6 mmol/L DTT aqueous solution was added to the aqueous solution, and the mixture was incubated at room temperature for 1 hour to obtain an aqueous solution of the cyclic peptide treated with a reducing agent. The DTT aqueous solution was used by diluting a 1 mol/L (+−)-dithiothreitol (DTT) solution (FUJIFILM Wako Pure Chemical Corporation, 044-33871) with water. The total area of all the peaks in LC/MS of the cyclic peptide before the reducing agent treatment was set to 100%, and the proportion of the total area of all the peaks in LC/MS of the aqueous solution of the cyclic peptide treated with the reducing agent was determined to calculate the residual rate of the cyclic peptide, and the molecular stability was evaluated according to the following evaluation criteria. The evaluation result preferably satisfies the evaluation criteria A, B, or C.
The LC used for the evaluation of molecular stability was set to the following conditions. • LC device: Prominence series (pump, column oven, autosampler, detector) (manufactured by Shimadzu Corporation) • Detector: photodiode array detector (SPD-M20A), measurement wavelength of 280 nm • Column: TSKgel ODS-100V, inner diameter of 4.6 mm×length of 150 mm, particle diameter of 5 μm (manufactured by Tosoh Corporation) • Eluent A: solution containing 0.1% trifluoroacetic acid as solute, and solvent is 100% water • Eluent B: solution containing 0.1% trifluoroacetic acid as solute, and solvent is 100% acetonitrile • Flow rate: 1.0 mL/min • Injection amount: 25 μL • Gradient: 20% to 50%: Eluent B (0 to 15 minutes), 100%: Eluent B (15 minutes) • Column temperature: 40° C.

bovine myoblasts = assay: Bovine myoblast proliferation-promoting effect; assay type: cell-based, Japanese Black cattle; conditions: of 30 ng/mL bFGF (=100, negative control =0); 0.03 to 10 nmol/L complex, 4 days
Method: The bovine cells (myoblasts) proliferation-promoting effect of the cyclic peptide complex was evaluated.
Bovine myoblasts were separated from bovine muscle tissue by the following method. First, muscle tissue of Japanese Black cattle was finely chopped in HBSS (−) (phenol red-free) (FUJIFILM Wako Pure Chemical Corporation, 085-09355), and then pronase from Streptomyces griseus (Sigma-Aldrich, 10165921001) was added thereto to a final concentration of 1 mg/mL, and the mixture was allowed to stand at 37° C. for 1 hour. After allowing to stand, HBSS containing 10% FBS was added thereto, and the cells were acquired by centrifugation. The acquired cells were suspended in D-MEM (high glucose) (containing L-glutamine and phenol red) (FUJIFILM Wako Pure Chemical Corporation, 044-29765) containing 10% final concentration of bovine serum and 30 ng/mL bFGF. Suspended cells were cultured in a culture flask coated with an iMatrix-511 solution (FUJIFILM Wako Pure Chemical Corporation, 381-07363) at 0.55 μg/cm^2. […]
The evaluation of the proliferation-promoting effect on bovine myoblasts was performed by the following method. […] The number of viable cells was calculated from the imaging data and normalized by setting the number of viable cells in the well to which 30 ng/mL bFGF was added to 100, and setting the number of viable cells in the negative control well to 0.

Row | Substance | Evaluation result of binding affinity to FGFR [1] | Evaluation result of binding affinity F GFR2 [2] | Evaluation result of binding affinity to FGFR1 [3] | Evaluation result of binding affinity to FGFR3 [4] | Evaluation result of binding affinity to FGFR4 [5] | Evaluation result of reductive stability [6] | bovine myoblast proliferation action (bovine myoblasts)
1 | 450 (YCEENYLDPEQYQYFIYFK(COCH2)YKKK; thioether 2-19) [compound 450] | A (The binding amount is 0.7 molecules of the cyclic peptide/one molecule of FGFR or more.) | A (The binding amount is 0.05 molecules of FGFR/one molecule of the cyclic peptide or more.) | B (The binding amount is 0.01 molecules of FGFR/one molecule of the cyclic peptide or more and less than 0.05 molecules of FGFR/one molecule of the cyclic peptide.) | B (The binding amount is 0.01 molecules of FGFR/one molecule of the cyclic peptide or more and less than 0.05 molecules of FGFR/one molecule of the cyclic peptide.) | B (The binding amount is 0.01 molecules of FGFR/one molecule of the cyclic peptide or more and less than 0.05 molecules of FGFR/one molecule of the cyclic peptide.) | B (The residual rate of the cyclic peptide is 70% or more and less than 90%) | 
2 | Q-(C)-PQNFINPVQWRYFQHY-(K(acetyl))-NK (QCPQNFINPVQWRYFQHYK(COCH2)NKQCPQNFINPVQWRYFQHYK(COCH2)NK; thioether 2-19, 23-40; not fully specified (N-terminus, bridges); also: Bis-NHS-PEG9 crosslink, dimer of two 21-mers) [SEQ ID NO: 458, cyclic peptide complex; N-terminal acetylation, crosslinking between side chain amino groups of K via Bis-NHS-PEG9] |  |  |  |  |  |  | about 40%
